From article PMC5888019 (Nucleic Acids Research, 2018) come the findings set out here.

Substitutions are numbered along the chain they refer to. Numbers in names are those of the source.

The target in experiment [1] is T1, Xrs2 (Flag-tagged, recombinant) (S. cerevisiae, UniProt P33301 1-854).
T1 sequence (looked up): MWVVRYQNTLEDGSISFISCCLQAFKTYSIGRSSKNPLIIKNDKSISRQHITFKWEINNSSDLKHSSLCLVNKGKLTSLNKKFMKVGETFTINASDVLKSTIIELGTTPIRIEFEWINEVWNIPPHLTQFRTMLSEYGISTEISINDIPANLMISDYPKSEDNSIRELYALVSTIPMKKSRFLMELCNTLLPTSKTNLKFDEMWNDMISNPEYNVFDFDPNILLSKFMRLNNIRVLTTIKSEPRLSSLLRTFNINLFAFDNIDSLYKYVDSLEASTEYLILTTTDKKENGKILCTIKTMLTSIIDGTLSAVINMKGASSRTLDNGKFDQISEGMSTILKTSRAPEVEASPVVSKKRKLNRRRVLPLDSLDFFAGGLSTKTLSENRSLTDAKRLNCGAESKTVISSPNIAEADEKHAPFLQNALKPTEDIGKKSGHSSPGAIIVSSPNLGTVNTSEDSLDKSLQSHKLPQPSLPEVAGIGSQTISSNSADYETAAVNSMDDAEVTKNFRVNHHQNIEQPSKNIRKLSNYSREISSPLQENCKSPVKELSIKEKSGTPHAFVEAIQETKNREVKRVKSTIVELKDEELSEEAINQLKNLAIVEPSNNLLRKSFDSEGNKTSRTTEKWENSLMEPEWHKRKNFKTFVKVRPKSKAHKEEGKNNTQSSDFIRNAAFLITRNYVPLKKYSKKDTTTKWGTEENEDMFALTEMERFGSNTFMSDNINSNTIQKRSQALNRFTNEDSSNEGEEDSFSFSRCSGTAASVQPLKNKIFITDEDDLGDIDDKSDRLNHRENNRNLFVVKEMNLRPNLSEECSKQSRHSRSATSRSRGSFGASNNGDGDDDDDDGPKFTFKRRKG
The experiment in a line: pull-down.

The next experiment has as its target T2, Rad50 (S. cerevisiae, UniProt P12753 1-1312).
T2 sequence (looked up): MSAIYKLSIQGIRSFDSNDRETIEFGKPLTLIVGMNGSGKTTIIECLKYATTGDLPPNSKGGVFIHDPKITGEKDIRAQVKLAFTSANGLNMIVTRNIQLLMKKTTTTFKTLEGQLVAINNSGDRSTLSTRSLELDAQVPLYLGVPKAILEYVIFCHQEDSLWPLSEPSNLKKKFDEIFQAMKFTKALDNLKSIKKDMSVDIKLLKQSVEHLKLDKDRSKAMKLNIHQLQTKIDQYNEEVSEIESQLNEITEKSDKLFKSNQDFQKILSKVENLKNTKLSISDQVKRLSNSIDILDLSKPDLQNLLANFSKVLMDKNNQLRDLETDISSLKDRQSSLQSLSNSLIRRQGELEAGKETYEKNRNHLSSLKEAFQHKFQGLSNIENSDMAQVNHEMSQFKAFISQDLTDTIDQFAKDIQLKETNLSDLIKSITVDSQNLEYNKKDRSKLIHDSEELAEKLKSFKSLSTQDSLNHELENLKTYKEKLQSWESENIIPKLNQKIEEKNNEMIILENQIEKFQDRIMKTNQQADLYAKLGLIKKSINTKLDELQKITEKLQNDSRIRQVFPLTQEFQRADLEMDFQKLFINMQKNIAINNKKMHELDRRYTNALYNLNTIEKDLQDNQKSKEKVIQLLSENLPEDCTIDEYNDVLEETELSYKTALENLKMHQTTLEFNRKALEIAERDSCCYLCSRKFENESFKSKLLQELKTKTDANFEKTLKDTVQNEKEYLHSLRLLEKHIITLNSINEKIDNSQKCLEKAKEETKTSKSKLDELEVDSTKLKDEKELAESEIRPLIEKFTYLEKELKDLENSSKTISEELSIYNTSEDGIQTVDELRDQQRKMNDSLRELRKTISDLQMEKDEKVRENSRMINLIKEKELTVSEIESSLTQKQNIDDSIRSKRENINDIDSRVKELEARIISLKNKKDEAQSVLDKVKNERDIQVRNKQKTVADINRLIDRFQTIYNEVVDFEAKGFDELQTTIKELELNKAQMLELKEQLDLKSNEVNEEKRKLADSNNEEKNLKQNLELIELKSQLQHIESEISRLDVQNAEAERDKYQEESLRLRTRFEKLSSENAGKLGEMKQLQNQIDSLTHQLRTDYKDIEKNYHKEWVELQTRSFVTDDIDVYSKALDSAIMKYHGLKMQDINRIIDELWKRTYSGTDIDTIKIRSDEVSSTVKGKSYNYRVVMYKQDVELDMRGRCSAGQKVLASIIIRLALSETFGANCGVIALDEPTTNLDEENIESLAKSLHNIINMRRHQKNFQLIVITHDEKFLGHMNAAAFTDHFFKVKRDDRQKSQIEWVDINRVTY
Description: pull-down.

B1: His-tagged Mre11 (wild type) (natural protein, S. cerevisiae, UniProt P32829 1-692, looked up)
chain: MDYPDPDTIRILITTDNHVGYNENDPITGDDSWKTFHEVMMLAKNNNVDMVVQSGDLFHVNKPSKKSLYQVLKTLRLCCMGDKPCELELLSDPSQVFHYDEFTNVNYEDPNFNISIPVFGISGNHDDASGDSLLCPMDILHATGLINHFGKVIESDKIKVVPLLFQKGSTKLALYGLAAVRDERLFRTFKDGGVTFEVPTMREGEWFNLMCVHQNHTGHTNTAFLPEQFLPDFLDMVIWGHEHECIPNLVHNPIKNFDVLQPGSSVATSLCEAEAQPKYVFILDIKYGEAPKMTPIPLETIRTFKMKSISLQDVPHLRPHDKDATSKYLIEQVEEMIRDANEETKQKLADDGEGDMVAELPKPLIRLRVDYSAPSNTQSPIDYQVENPRRFSNRFVGRVANGNNVVQFYKKRSPVTRSKKSGINGTSISDRDVEKLFSESGGELEVQTLVNDLLNKMQLSLLPEVGLNEAVKKFVDKDEKTALKEFISHEISNEVGILSTNEEFLRTDDAEEMKALIKQVKRANSVRPTPPKENDETNFAFNGNGLDSFRSSNREVRTGSPDITQSHVDNESRITHISQAESSKPTSKPKRVRTATKKKIPAFSDSTVISDAENELGDNNDAQDDVDIDENDIIMVSTDEEDASYGLLNGRKTKTKTRPAASTKTASRRGKGRASRTPKTDILGSLLAKKRK
With B1, in experiment [1], the binding result is reported as “binds”.

B2: His-tagged Mre11-R522H (natural protein, S. cerevisiae, UniProt P32829 1-692, looked up)
chain: B1 chain with R522H
Take B2: the binding result (with Rad50; in experiment [1]) was “binds” in each case.
